Earlier results in PMC12115143.
pKd: −log10 of the molar value.

Columns and labels:
[1] = molecular target: AHP1 (Arabidopsis thaliana) (UniProt Q9ZNV9)
[2] = molecular target: AHP2 (Arabidopsis thaliana) (UniProt Q9ZNV8)
Chain of UniProt Q9ZNV8 (Q9ZNV8 whole entry): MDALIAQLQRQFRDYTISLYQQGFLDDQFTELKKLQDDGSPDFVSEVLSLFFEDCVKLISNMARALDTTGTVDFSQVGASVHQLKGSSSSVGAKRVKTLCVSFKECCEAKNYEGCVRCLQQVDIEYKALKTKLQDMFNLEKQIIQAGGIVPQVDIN

Chain of UniProt Q9ZNV9 (Q9ZNV9 whole entry): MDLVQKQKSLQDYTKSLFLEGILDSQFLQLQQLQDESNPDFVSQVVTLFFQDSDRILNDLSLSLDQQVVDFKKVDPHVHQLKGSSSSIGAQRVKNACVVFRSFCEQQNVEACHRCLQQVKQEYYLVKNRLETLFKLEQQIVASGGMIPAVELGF

Row | Substance | pKd [1] | pKd [2]
1 | ETR1 (from UniProt P49333) | 5.82 | 
2 | AHK1 (from UniProt Q9SXL4) |  | 6.52
